According to the supplement of paper PMC12764529:
± gives the half width of the 95% confidence interval.

Columns and labels:
[1] = folding stability dG unfold from trypsin proteolysis; higher = more stable
Summary of the method: (§1)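 Only designs with AlphaFold2 dimer inter-PAE above 15 were retained; each was a mini-protein under 80 residues with no cysteine, in a PA-tagged cDNA display construct. After digestion with trypsin and chymotrypsin and sequencing, K50 was inferred by Bayesian fitting of counts, and unfolding free energy was derived per protease or combined against a sequence-predicted unfolded-state K50 and a shared folded-state K50.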

[2] = folding stability dG unfold (combined trypsin and chymotrypsin); higher = more stable
Summary of the method: as §1

[3] = folding stability dG unfold from chymotrypsin proteolysis; higher = more stable
Summary of the method: as §1

| Sequence | folding stability dG unfold [1] | folding stability dG unfold [2] | folding stability dG unfold [3] |
| --- | --- | --- | --- |
| SAGMYMVTITWEYPNGWTFEFMVFVRGPNPEEAREQVDEAAREIFEQRDHPIKDVKVDVQPMPPGQEISAGG [r19_335_TrROS] | 1.96 ± 0.064 kcal/mol | 2.84 ± 0.23 kcal/mol | 3.18 ± 0.054 kcal/mol |
| SAGIEIRIEAYMPWEEARDQVKEIARWLMSMFPGFKVDIDVDHEPVPNNMWVATVTIKIEPLPPGQPIFSAG [r5_936_TrROS] | 3.83 ± 0.1 kcal/mol | 4.56 ± 0.12 kcal/mol | 4.79 ± 0.066 kcal/mol |
| SAGGGSRTLTRGDKTYVFTTAPPPTGGRYVTLTVVDPATGAPAPVYTMDVTDGTDEEALARLLAAPLSAGGS [r16_378_JUSTAS] | -0.038 ± 0.11 kcal/mol | 0.581 ± 0.038 kcal/mol | 0.847 ± 0.091 kcal/mol |
| SAGGSAGGSAGKPKVRLKLRLTVRVTTLNEDGSLEETEVELELEVELPEVRLPSLEELLKSAGGSAGGSAGG [r11_285_TrROS_Hall] | 3.22 ± 0.23 kcal/mol | 3.07 ± 0.41 kcal/mol | 2.92 ± 0.24 kcal/mol |
| SMKILIVTKEKAEELAEAIKKKFPNIEIEVFDTPEEAEEAAKKGDIVIVIGSEEEAKELAKKLKVKVIKISA [r9_380_TrROS_Hall] | 2.19 ± 0.09 kcal/mol | 2.86 ± 0.45 kcal/mol | 3.39 ± 0.12 kcal/mol |
| SAGGMSTTKTVTSGGSTVTITTEPLPDGTTLSTVTVKSGGSPVTTITIPTSQLGEVAAAGGFAPADLLSAGG [r13_108_JUSTAS] | 0.0387 ± 0.054 kcal/mol | 0.15 ± 0.065 kcal/mol | 0.172 ± 0.055 kcal/mol |
| SAGGSAGGSADVVVEVEYDSSGDYVLVKVKLKEKEIPFKFSKSLSPEEVIEKAKELAKKAAKSAGGSAGGSA [r18_266_TrMRF] | 0.597 ± 0.098 kcal/mol | 0.677 ± 0.13 kcal/mol | 0.584 ± 0.27 kcal/mol |
| SAGGSAVIVIETRADDPRLLEAIKKAREEGKPVVVRFPDGKALVFYPEGPVEEVDSPEQLKEAGFGSAGGSA [r15_94_TrMRF] | 2.19 ± 0.033 kcal/mol | 1.94 ± 0.031 kcal/mol | 1.716 ± 0.011 kcal/mol |
| SAGGSAGGSAGGGWIYMVTIEPKEVKRSPDPGGKGRPTFEFEMDITIIWIRVDPEDLDDSAGGSAGGSAGGS [r10_654_TrROS] | 2.85 ± 0.13 kcal/mol | 3.76 ± 0.15 kcal/mol | 4.14 ± 0.073 kcal/mol |
| SAGGPNKPIKIKIMIWRDPGGWYIAIRIPDGNTRMFKSPEQIKSILEKFPGLKIDEIEIIPPDQMKKLSAGG [r13_730_TrROS] | 1.7 ± 0.025 kcal/mol | 2 ± 0.079 kcal/mol | 2.23 ± 0.073 kcal/mol |
| SAGGATITLEPGTFTIEFPENELVIPVPVPEERPDVSPEEAAREIVEELREKYGLPPPEDLTVELAPSAGGS [r8_402_JUSTAS] | 0.299 ± 0.13 kcal/mol | 0.273 ± 0.22 kcal/mol | 0.184 ± 0.27 kcal/mol |
| SAGGEVEVKEITMTAEELRELIEELKKEGYLVVIENKTGEKKVIPVKEDDLKPGDEVKIRVFKLKKPSAGGS [r16_31_TrROS_Hall] | 0.537 ± 0.14 kcal/mol | 0.733 ± 0.31 kcal/mol | 0.691 ± 0.39 kcal/mol |
| SAGGSAGGSAMKVTVEEEELEVEPGETVKIKIRLPNGEEREFSLEDLKKLPPGEAEVEIERVSAGGSAGGSA [r18_394_TrROS_Hall] | 0.583 ± 0.076 kcal/mol | 0.785 ± 0.18 kcal/mol | 0.729 ± 0.13 kcal/mol |
| KKITVVRPAKTLEEVEQAVRDLLKELNIPEGTKVEVKVEEIPETGAFVATVTVTLPNGEKIEVTVLFPKLFS [r1_84_TrMRF] | 2.26 ± 0.092 kcal/mol | 2.68 ± 0.09 kcal/mol | 2.95 ± 0.081 kcal/mol |
| SAGDPRLRVLVVDLEVEGLEELREFVEEHPDVEVLPRPDGRVLLRRVLLVEVEEPEGEEDPDGPTLHPDSAG [r5_129_TrMRF] | 0.966 ± 0.11 kcal/mol | 1.26 ± 0.13 kcal/mol | 1.44 ± 0.18 kcal/mol |
| SAGGSKMEPGPVKIKVTDGGEEHTFDFQVSVMPDPDGRPMIMFSFPDGNPLSIPLDDAEKITDIEVSAGGSA [r2_297_TrROS] | 0.322 ± 0.11 kcal/mol | 0.106 ± 0.18 kcal/mol | -0.141 ± 0.29 kcal/mol |

| Sequence | folding stability dG unfold [1] | folding stability dG unfold [2] | folding stability dG unfold [3] |
| --- | --- | --- | --- |
| SAMKKVEIEIEVVEVDGELYILIKIKAETPEEVKEAAEKLLKELGLPPEAEVEVVEKDGEVYILIRLKPSAG [r14_804_TrROS_Hall] | 3.08 ± 0.082 kcal/mol | 4.17 ± 0.13 kcal/mol | 4.53 ± 0.05 kcal/mol |
| SAGGSAGGSKTLVIEEDGELYKVRITNKNGKEIEIVMSADEIKKLPPNAKVEVEKIKLPEKKPSAGGSAGGS [r12_419_TrROS_Hall] | 1.18 ± 0.028 kcal/mol | 1.36 ± 0.062 kcal/mol | 1.52 ± 0.067 kcal/mol |
| SAGGSAGGSMPVVRIKVRYFNKDGKPVKEKEITITLPAEEITADELRKRLEEAGYEIVEIEVVSAGGSAGGS [r12_611_TrROS_Hall] | 3.42 ± 0.08 kcal/mol | 3.58 ± 0.061 kcal/mol | 3.63 ± 0.054 kcal/mol |
| SAGGWLWVRTNGRIFVIEIKTEMKWEYDPGDPGQWRMDMEPEIEVRPIPPDDIKPLPPVDEDDPENKSAGGS [r16_395_TrROS] | 1.68 ± 0.13 kcal/mol | 1.87 ± 0.32 kcal/mol | 2.09 ± 0.27 kcal/mol |
| SAGGMVVRIKVKIKNPETGEVIEVEALVEVDEDGNVTITLPNGKKITLPKGAKVEIVDVEELPPEDLSAGGS [r16_223_TrROS_Hall] | 3.72 ± 0.11 kcal/mol | 3.52 ± 0.093 kcal/mol | 3.14 ± 0.075 kcal/mol |
| SAGIKPGDPVVIKFNVPPELREKIKEAFEKPGYEYEFHPETGEVTVVAPAENIDELMKLPYIEEIVPGSAGG [r19_212_TrMRF] | 0.891 ± 0.052 kcal/mol | 0.817 ± 0.15 kcal/mol | 0.768 ± 0.1 kcal/mol |
| SAGGSAGGSAGGSKAKKITIWIPPGNINPEVKDQLQKEGINIEIQPIPAKRDPDGKPRWSAGGSAGGSAGGS [r4_294_TrROS] | -0.558 ± 0.34 kcal/mol | 0.81 ± 0.14 kcal/mol | 1.2 ± 0.036 kcal/mol |
| SAGGSAEEEVYRVRVTVTYRNPETGEVVEEVELVIEVEKGKTVEEVARELAKKLNVDRVEVELVPPSAGGSA [r15_540_TrROS_Hall] | 3.65 ± 0.11 kcal/mol | 4.27 ± 0.1 kcal/mol | 4.52 ± 0.091 kcal/mol |
| SAGIPLGPEQLRALAEELAEEFKKKLAEELGLSPEDIKLLSIRRLPDGSIEIELEIPDRTYRYTFPLPDSAG [r5_565_JUSTAS] | 3.2 ± 0.17 kcal/mol | 3.1 ± 0.16 kcal/mol | 3.02 ± 0.042 kcal/mol |
| SAAKKVVTVPLPFLAPENSITPEELVALAVAAFEKLFPGAKIEKFEFNMPVFRLPGDGVIVVVEITDTSSAG [r14_145_TrMRF] | 2.04 ± 0.041 kcal/mol | 2.32 ± 0.088 kcal/mol | 2.411 ± 0.024 kcal/mol |
| SAGPVIATADVEVYEDGTAKITLTLRTLTENGELLPDVTLPITLPLPPGSKATITVNLDDGEITITVGDSAG [r5_179_TrMRF] | 4.07 ± 0.12 kcal/mol | 3.96 ± 0.11 kcal/mol | 3.79 ± 0.16 kcal/mol |
| SAGGSAGGKTLELEVEALDPITGEPYKVKIIYDPETGTATILVTHPNGKKSLFTVPAGEALKLLSAGGSAGG [r6_219_TrMRF] | 2.63 ± 0.19 kcal/mol | 3.28 ± 0.13 kcal/mol | 3.456 ± 0.033 kcal/mol |
| SAGGSMVTLTTTETSVEGERTVEVSTLGSKTVTTTFEPESDSSTVTTSPVPPVAGPELLALNLLLLSAGGSA [r2_482_JUSTAS] | 0.291 ± 0.079 kcal/mol | 0.189 ± 0.082 kcal/mol | -0.102 ± 0.18 kcal/mol |
| SAGGSAGGSEEEVEIVDVEIEEKDGKLVIRAKIRNKETGELYEVTLVFDKETGELHLEVRKLPSAGGSAGGS [r12_14_TrROS_Hall] | 3.99 ± 0.097 kcal/mol | 3.95 ± 0.15 kcal/mol | 3.78 ± 0.13 kcal/mol |
| SAGGSASPVFVATRISLPGGNASVDTSRYDPSSGTLTITVTLPDGTTTTITLTGPVSEYPADRLLLSAGGSA [r15_596_JUSTAS] | 1.04 ± 0.022 kcal/mol | 1.13 ± 0.061 kcal/mol | 1.16 ± 0.051 kcal/mol |
